Reference: the nanobody polyreactivity screen of Harvey et al. (2022)

Assay: yeast display, Sf9 membrane polyspecificity reagent, FACS + sequencing; frameworks hold sequencing errors
How it was run: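 A synthetic nanobody library was expressed on Saccharomyces cerevisiae BJ5465 by galactose induction for 36–48 hours. The library was stained for 1 hour at 4 °C with 10% biotinylated, detergent-solubilized Sf9 membrane reagent and enriched with streptavidin microbeads before FACS. Low and high (top ~1%) gates were set on anti-HA fluorescence for expression and streptavidin fluorescence for reagent binding, and each polyreactivity label reflects the gate of origin.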

Sequence | polyreactivity (PSR sort gate)
QGQLVESGGCLVQAGGSLRLSCAASGRTFYRNAMCLYRQSPGKERELVAVISSSGVRTYYADSVKGRFTISRDNAKNTVYLQMNSLKPEDTAVYYCAADSNSYYRGFDYWGQGTQVTVSS | high polyreactivity
QGQLVESGGGLVQAAGSLSLSCAASGRIYPYAMGWYRQAPGKERELVAAIPVNDGSTYYADSVTGRFTIARDNAMISVDLQMNSRKPEVSAVYYWKADYPIGWRNQYVQILYDYWGQGTQVTVSS | low polyreactivity
QGQLVESGGGLVQAGGSLPLSCAASGFTFRWNTMGWSRQGPGKEREFVASISQRGGRTFYADSVKGRFTISRDNAKNTVYIQMNCQKPEDTAVYFCNARGHRAVPGDELGYWGQGTQVTVSS | low polyreactivity
QGQLVESGGGLVQAGGSLRISCGASGYIFGDKAMGWYRPEPGKARELVAAITQTGANTYYADSVMGRFTISRDNAKNTVYLQMNSLKPEDSAVYYCNKVSVVYSRSKGFYYTYLKYEFWGQGTQVTVSS | low polyreactivity
QGQLVESGGGLVQAGGSLRLSCAASGFIFSIYAMGWYRQAPGKDRELVAGIDNGGGTYYADSGKGRFTISRDNAKNTVYLQMNRLKPEDTAVYYCAADTYSIGELYDYWGQGTQVTVSS | low polyreactivity
QGQLVESGGGLVQAGGSLRLSCAASGFTFDYYAMGWYRQAPGKARELVAAITTAASTNYADSVKGRFTISRDTAKNTVYFQMNSLKPEDTAVYYCAASWWPWYISWDDYWGQGTQVTVSS | high polyreactivity
QGQLVESGGGLVQAGGSLRLSCAASGFTFPHYAMGWYRQAPGKERELVAAISWSGGSTFSADSVKGRFTISRDTAKNNVYLQMNSLKPADTAVYYCAARSRSWTPYYYWGQGTQVTVSS | high polyreactivity
QGQLVESGGGLVQAGGSLRLSCAASGFTFTSNAMGWYRQAPGQERELVAVISTRGGSTFYADSGKGRFTISRDNAKNTVYLQMNSLKPEDTAVYYCAADSTDYRWTAYYWGQGTQVTVSS | high polyreactivity
QGQLVESGGGLVQAGGSLRLSCAASGFTLLPYAMGWYRQAPGKERELVAAISRRGVSTYYADSVKGRFTISRDNAKNTVYLQMISLKPEDTAVYYCAAKYRKWPMDYWGQGTQVTVSS | high polyreactivity
QGQLVESGGGLVQAGGSLRLSCAASGIIFGGYTMGWYRQAPGKERELVAAITKRTDRTYYADSVKGRFTISRDNAKNTVYLQMHSMKPEDTAVYYCATRGGITRPWYGYDYWGQGTQVTVSS | high polyreactivity
QGQLVESGGGLVQAGGSLRLSCAASGLIFVWYAMGWYRQARGKERELVAAISWSGGSTYYADSVKGRFTISRDNAKNTVYLQMNSLKPEDTAVYYCATDPYGYSYLLVDYNYWGQGTQVTVSS | low polyreactivity
QGQLVESGGGLVQAGGSLRLSCAASGRIFRANAMGWYRQAPGKERELVAAIDASGGSTYYADSVKGRFTISRDNAKNTVYLQMNSLKPEDTAVYDCAADRGFLRSFAPGNMDYWGQGTQVTVSS | low polyreactivity
QGQLVESGGGLVQAGGSLRLSCAASGRTFWYYTIGWYRQAPGKERELVAAISSGGRTNYADSVKGRFTISRDNAKNPVYLQMNSLKPEDTAVYYCASSRYYKYVERDYWGQGTQVTVSS | high polyreactivity
QGQLVESGGGLVQAGGSLRLSCAASGSIFDLNAMGWYRQAPGKERELVAAISSGGGTYYADSVKGRFTISRDNAKNTVYLQMNCLKPEDTAVYYCNRVTRWTYNYWGQGTQVTVSS | high polyreactivity
QGQLVESGGGLVQAGGSLRLSCAASGSIFTFYTLGWYREAPGKVRELVAAINWSGSRTYYAASVKGRFTISRDNAKNTVYLQMNSLKPEDTAVYYCNAAIRYDWYQVLWNFSRESNYWGQGTQVTVSS | high polyreactivity
QGQLVESGGGLVQAGGSLRLSCAASGSIFVQNAMGWYRQAPGKEREFVAVINSGDSTNYADSVKGRFTISRDIAKNTVYLQMNSLKADDTAVYYCAVDDVSYYYLRAYNYELSWYGSGLDYWGQGTQVTVSS | low polyreactivity

Sequence | polyreactivity (PSR sort gate)
QGQLVESGGGLVQAGGSLRLSCAASGSTFRNYAMGWYRQAPGKERELVAAISGSGGRTNYADSVKGRFTISRDNAKNTVYLQMNSLKPEDTAVYYCNARFPDWALSEISLSTTYGYWGQGTQVTVSS | low polyreactivity
QGQLVESGGGLVQAGGSLRLSCAASGSTIPVNAMAWYRQAPGKERELVAAITWGDGSTSYADSVKGRFTISRDNAKNTVYLQMNSLKPEDTAVYYCNKDFIYGYDAASYRPEYDYWGQGTQVTVSS | low polyreactivity
QGQLVESGGGLVQAGGSLRLSCAASVFTFAFYTMGWYRQATGKERELVAANTRSGGSTYYPDSVKGRFTISRDNAKNTVYLQRNSLKPEDTPVYYCAARGNTPRTRRYGYWGQGTQVTVSS | high polyreactivity
QGQLVESGGGLVQAGGSLRLSCAAYGSIYRNYAMGSYRQAPGKEREFVAAITTRGGRTYYADSVKGRFTISRDNAKNPVYLQINSLKPEDTAVYYCAARSYSEYNYWGQGTLVTVSS | high polyreactivity
QGQLVESGGGLVQAGGSLRLSCPASGRTFYGYAMGWYRQAPGKERELVAAITSSGGSTYYADSVKGRFTISRDHAKNTVYLQMNSLIPEDTAVYYCAAPSSRGQGRNFDYWGQGSQVTVSS | high polyreactivity
QGQLVESGGGLVQAGGSLRLSSAASGSTFAHYAMGWYRQAPGKERELVAAISRGGGSTYYADSVKGRFTISRDNAKNTVYVQMNSLKPEDTAVYYCAADPRYRVTLGFDYWGQGTQVTVSS | high polyreactivity
QGQLVESGGGLVQAGGSLSLSCAASRLTFYSNAMGWYRPAPGKEREMVAAISWIGASTYYADSVKGRFPISRDNAKNTVYLQMNSLKPEDTAVYYCAARAQARVFGWRFYYWGQGTQVTVSS | high polyreactivity
QGQLVESGGRLVQAGGSLRVSCAASGLTFNYYAMRWYRPAPGKERELVASISRSGGSTYYADSVKGRFTISRDNAKNTVYLQMNSLKPVDTAVYYCAAYRRRTYAVNKEGGYWGQGTQVTVSS | high polyreactivity
QGQLVESGRGLVQAGGSLRLSCAASGRIFYSYAMGWYRQAPGKERELVAAISSGGSTKYADSVKGRFTISRDNAKNTVYLQMNSLKPEDTAVYYCAARTYQKGGRYYYWGQGTQVTVSS | high polyreactivity
QGQLVESRGGLVQAGGSLRLICAASGFIFFIKSMGWYRQAPGKERELVAAINWTGGSTYADSVKGRFTISRDNAKNTVYLQMNSLKPEDTAVYYCAADPWDIYRRLSQGDHDYWGQGTQVTVSS | low polyreactivity
QGQLVETGGGLVQAGGSLRLSCAASGRSSVSMLMGWYRQPPGKERELVARITGSGGSTFYADSVKGRFTISRDNAKNTVYLQMNSLIPEDTAVYYCAAGYLWRGRYNYWGQGTQVTVSS | high polyreactivity
QGQLVETGGGLVQAGGSLRLSCDASGSIFYSNRGSYRQAPGKESEFVSAISGSGVRTYYADSLKGRFTISRDNAKNTVYLQMNSLKPEDNEVYYCNAGRRQDYRYNYWGQGTQVTVSS | high polyreactivity
QGQPVESGGGLVQAGGSLRLSCAASGLIFRWYAMGWNRQAPVQEREVVAAISWSGASTYYADSVKGRFTISRDTPKNTVYLQMNSLKPDDTAVYYCAADYGYYGAGSYFDRGDYWGQGTQVTVSS | high polyreactivity
QGQRVESAGGLVQAGGSLRLSCAASGITFARNVMGWSRQAPGQERELVAAISRGDSTYYADSVKGRFTISRDNAKNTVYLQLNSLKPEDTAVYYCAAAVKHVAYHYNYWGQGTQVTVSS | high polyreactivity
QGQRVESGGGLVQAGGSLRLSCAASGSIFSYNTMGWYRQAPGKEREFVATIDWRDGSTYYADSVKGRFTISRDNAKNTVYLQMNSLKPEDTAVYYCATYYIVVEDNYWGQGTQVTVSS | high polyreactivity
